{"source": "patent US20090232787A1", "about": "“CARCINOGEN DETOXIFICATION COMPOSITION AND METHOD” (Gene Research Lab. Co., Ltd., priority 2004, published 2009)", "key": {"[1]": {"tested_on": "Cytochrome p450 1A1 (CYP1A1)", "experiment": "Aryl hydrocarbon hydroxylase (AHH) assay", "conditions": "cells treated with 9 μM BaP", "description": "• 1.1 Cell lines and culture. Two HCC cell lines-Huh 7 (13) and HA22TNGH (14)—and one human hepatoblastoma cell line-Hep G2 (15)—were used in this study. Cells were cultured in Dulbecco's modified Eagle's medium (DMEM, GIBCO BRL, Grand Island, N.Y.) with 10% heat-inactivated fetal bovine serum (HyClone, Logan, Utah), penicillin (100 IU/ml), streptomycin (100 μg/ml), nonessential amino acids (0.1 mM), fungizone ([…]) and L-glutamine (2 mM) in a humidified incubator with 5% CO2. • 1.2 Construction of pGNMT, pGNMT-antisense and pGNMT-His-short plasmids. To construct plasmid-pGNMT containing the CMV promoter and GNMT cDNA fragment, we used plasmid-pFLAG-CMV-5 (Kodak, Rochester, N.Y.) as a vector and the pBluescript-GNMT-9-1-2 phagemid (8) as the PCR template for generating the insert. A 0.9 kb DNA fragment containing the GNMT cDNA sequence and restriction enzyme sites on both ends was amplified. All PCR conditions were as recommended by the manufacturer (Perkin Elmer, Norwalk, Conn.) with two exceptions: 2 mM of MgCl2 and 150 nM of primer. Twenty amplification cycles were performed using Perkin Elmer's Amplitaq Gold Taq DNA polymerase with DNA Thermal Cycler. […] RP concentration was measured with a BCA protein assay (Pierce, Rockford, Ill.); purity was tested by running samples on a 12.5% SDS-polyacrylamide mini-gel (Bio-Rad Laboratories, Richmond, Calif.). • 1.4 Transfection. […]"}, "CYP1A1 gene": {"tested_on": "CYP1A1 gene", "conditions": "following BaP treatment; preliminary data"}, "lung tumors": {"tested_on": "lung tumors", "assay_type": "in vivo", "conditions": "GNMT-overexpressing transgenic mice, 375 μg B(a)P/7g body weight everyday IP for 15 days, sacrificed 78 weeks after the challenge", "description": "• 1.1 pPEPCKex-flGNMT Plasmid Construction: pPEPCKex-flGNMT plasmid was prepared by using a pPEPCKex vector (concluding with phosphoenolpyruvate carboxykinase promoter (PEPCK, Valera et al., 1994), specific expressed in liver and kidney) and pSK-flGNMT (concluding with full length human GNMT cDNA) plasmid. Both plasmids were digested with Not I and Xho I. Insert was ligated to the vector and transformation into the competent cell (JM109). The clones were selected with ampicillin and screened with PCR to check pPEPCKex-flGNMT plasmid (FIG. 1). • 1.2 Production of Transgenic Mice: pPEPCKex-flGNMT plasmid was amplified and digested with Asc I to linear form (4.3 Kb). The linear form pPEPCKex-flGNMT gene was sent into FVB stain mice 0.5 days embryo by pronuclei microinjection. The embryos were sent into the foster mother (ICR strain mice). After 18-21 days, the mice were bred and screened with PCR to check the transgenic mice. • 1.3 Expression human GNMT in liver and kidney of transgenic mice: To check the PEPCK promoter specific expression organ, we used northern blot (FIG. 2) and western blot (FIG. 3). The human GNMT was specific expression in liver and kidney. […]"}}}
{"substance": "GNMT: Glycine N-methyltransferase (EC2.1.1.20), SEQ ID No: 1, SAM-dependent methyltransferase binding benzo(a)pyrene", "values": [{"measurement": "reduction in CYP1A1 enzyme activity in GNMT-expressing cells (SCG2-1-1) compared to SCG2-neg cells", "setting": "[1]", "result": 45, "unit": "%"}, {"measurement": "reduction of CYP1A1 gene expression in SCG2-1-1 cells compared to Hep G2 cells", "setting": "CYP1A1 gene", "result": "approximately 20%"}, {"measurement": "mice that generated lung tumors", "setting": "lung tumors", "result": 30, "unit": "%"}]}
